# T1: MukB^KRK (K1114E, R1122E and K1125E) (Escherichia coli, UniProt P22523 1-1486, K1114E | R1122E | K1125E)
# T1 construct: E. coli MukB, triple charge-reversed mutant; source: E. coli FL01 (mukB 3xFLAG C3013I), purified (TALON, HiTrap Heparin, Superdex 200); not shown: His tag, C-terminal, kept
# T1 sequence (looked up): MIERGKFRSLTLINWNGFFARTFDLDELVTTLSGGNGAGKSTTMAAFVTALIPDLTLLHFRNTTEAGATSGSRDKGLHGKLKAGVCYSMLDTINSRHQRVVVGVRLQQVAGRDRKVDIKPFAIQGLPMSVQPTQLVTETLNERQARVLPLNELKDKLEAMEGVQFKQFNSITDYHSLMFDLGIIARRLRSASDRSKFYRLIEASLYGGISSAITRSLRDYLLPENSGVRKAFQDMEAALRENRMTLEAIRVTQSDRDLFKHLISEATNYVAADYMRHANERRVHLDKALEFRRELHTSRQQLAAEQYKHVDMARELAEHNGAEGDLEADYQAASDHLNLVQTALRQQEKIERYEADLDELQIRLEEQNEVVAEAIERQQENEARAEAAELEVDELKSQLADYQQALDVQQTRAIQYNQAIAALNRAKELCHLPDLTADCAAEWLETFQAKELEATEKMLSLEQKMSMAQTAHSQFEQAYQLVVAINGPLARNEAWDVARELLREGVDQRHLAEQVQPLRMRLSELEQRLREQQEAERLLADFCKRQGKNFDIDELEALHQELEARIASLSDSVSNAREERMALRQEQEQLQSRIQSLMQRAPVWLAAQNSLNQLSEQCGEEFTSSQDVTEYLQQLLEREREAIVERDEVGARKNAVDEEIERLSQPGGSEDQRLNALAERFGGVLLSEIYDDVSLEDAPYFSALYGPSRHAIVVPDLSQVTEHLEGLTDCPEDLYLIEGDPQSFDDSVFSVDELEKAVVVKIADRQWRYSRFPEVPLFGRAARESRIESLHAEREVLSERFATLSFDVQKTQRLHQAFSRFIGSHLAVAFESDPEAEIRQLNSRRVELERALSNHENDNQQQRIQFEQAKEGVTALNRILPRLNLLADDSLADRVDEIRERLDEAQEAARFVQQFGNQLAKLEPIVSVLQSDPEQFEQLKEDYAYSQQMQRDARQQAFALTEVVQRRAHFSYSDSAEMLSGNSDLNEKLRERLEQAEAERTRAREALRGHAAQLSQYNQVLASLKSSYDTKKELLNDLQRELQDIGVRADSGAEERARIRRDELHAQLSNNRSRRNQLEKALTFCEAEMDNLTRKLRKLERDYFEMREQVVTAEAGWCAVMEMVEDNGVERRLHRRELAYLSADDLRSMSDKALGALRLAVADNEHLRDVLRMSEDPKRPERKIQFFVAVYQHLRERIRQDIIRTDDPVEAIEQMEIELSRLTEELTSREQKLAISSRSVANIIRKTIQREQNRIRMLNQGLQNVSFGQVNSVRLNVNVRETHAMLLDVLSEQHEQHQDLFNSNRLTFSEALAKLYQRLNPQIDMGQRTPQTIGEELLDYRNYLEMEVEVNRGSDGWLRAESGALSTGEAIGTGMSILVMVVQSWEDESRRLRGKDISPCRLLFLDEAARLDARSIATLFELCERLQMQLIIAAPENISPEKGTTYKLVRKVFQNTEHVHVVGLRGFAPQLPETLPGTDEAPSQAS
# B1: MukF (His-MukF) (natural protein, Escherichia coli, UniProt P60293 1-440, looked up)
# chain: MSEFSQTVPELVAWARKNDFSISLPVDRLSFLLAVATLNGERLDGEMSEGELVDAFRHVSDAFEQTSETIGVRANNAINDMVRQRLLNRFTSEQAEGNAIYRLTPLGIGITDYYIRQREFSTLRLSMQLSIVAGELKRAADAAEEGGDEFHWHRNVYAPLKYSVAEIFDSIDLTQRLMDEQQQQVKDDIAQLLNKDWRAAISSCELLLSETSGTLRELQDTLEAAGDKLQANLLRIQDATMTHDDLHFVDRLVFDLQSKLDRIISWGQQSIDLWIGYDRHVHKFIRTAIDMDKNRVFAQRLRQSVQTYFDEPWALTYANADRLLDMRDEEMALRDEEVTGELPEDLEYEEFNEIREQLAAIIEEQLAVYKTRQVPLDLGLVVREYLSQYPRARHFDVARIVIDQAVRLGVAQADFTGLPAKWQPINDYGAKVQAHVIDKY
# notes: MukF, the kleisin of Escherichia coli MukBEF; The end of the tag is read from the printed name 'His-MukF'; also called kleisin MukF; source: E. coli C3013I (NEB), pET vector, purified (TALON, HiTrap DEAE FF, Superdex 200)
# B2: MukE (MukE-His) (natural protein, Escherichia coli, UniProt P22524 1-234, looked up)
# chain: MSSTNIEQVMPVKLAQALANPLFPALDSALRSGRHIGLDELDNHAFLMDFQEYLEEFYARYNVELIRAPEGFFYLRPRSTTLIPRSVLSELDMMVGKILCYLYLSPERLANEGIFTQQELYDELLTLADEAKLLKLVNNRSTGSDVDRQKLQEKVRSSLNRLRRLGMVWFMGHDSSKFRITESVFRFGADVRAGDDPREAQRRLIRDGEAMPIENHLQLNDETEENQPDSGEEE
# notes: MukE, the KITE protein of Escherichia coli MukBEF; The end of the tag is read from the printed name 'MukE-His'; also called KITE protein MukE; source: E. coli C3013I (NEB), pET vector, purified (TALON, HiTrap DEAE FF, Superdex 200)
# Target: T1, MukB^KRK (K1114E, R1122E and K1125E)
# Experiment: native gel or EMSA; BN-PAGE; MukB or MukB^HN (0-4.5 μM) with MukF (1.5 μM), MukE (3 μM) and AcpP as indicated or none; 1 mM DTT, 1 mM MgCl2, 30 min at 22 °C; 3-12% native Bis-Tris gels; AMPPNP in some samples
# Conditions: both partners purified
binder,measurement,value
B1,binding result,binds
B2,binding result,binds
